Source: patent US20200369727A1, “COMPOSITION AND METHOD FOR TREATING A PATIENT HAVING LIVER CIRRHOSIS” (priority 2019, published 2020)

Biological target: T1, NS3 of SEQ ID NO: 3 (HCV NS3 genotype 4a) (Hepatitis C virus genotype 4a, UniProt O39929)
T1 construct: T7 tag (N); 6-His tag (C); made in house; host or cells: E. coli Rosette (DE3) pLysS
Assay: Differential static light scattering (DSLS), aggregation temperature of NS3 with peptide
Format: binding
Settings: NS3 of SEQ ID NO: 3 with peptide in 1:2 ratio, room temperature, two hours, shaking
Description: The binding of SEQ ID NO: 4 and its variants of SEQ ID NO: 6-20 to the NS3 of SEQ ID NO: 3 were determined by differential static light scattering method using Stargazer-2™ (Harbinger Biotechnology and Engineering Corporation, Toronto, Canada). The method assesses protein stability by monitoring aggregate formation upon gradual increase of temperatures. NS3 domain of SEQ ID NO: 3 stability upon binding to NS4A of SEQ ID NO: 4 was measured by monitoring denatured protein aggregation upon increasing temperature from 25 to 85° C. in 0.5° C. increments at 600 nm. […] The mixture and control were incubated at room temperature with gentle shaking for specified time. […]. Afterwards, 10 μL of the mixture was transferred into a clear bottom Nunc 384-well plate and covered by 10 μL paraffin oil to minimize evaporation. Protein aggregation was monitored by tracking the change in scattered light that was detected by a CCD camera. Snapshot images of the plate were taken every 0.5° C. The pixel intensities in a preselected region of each well were integrated using image analysis software to generate a value representative of the total amount of scattered light in that region. […] Aggregation was monitored and analyzed to assess the effect of NS4A of SEQ ID NO: 4 and its synthetic analogues of SEQ ID NO: 6-20 on the stability of the NS3 as an indicator of binding. […]

KKGSVVIVGRIVLSGKK [SEQ ID NO: 4, reference compound]
ΔTagg (Tagg shift, aggregation temperature): 2.83 °C
